What is called stoichiometry N is the number of molecules, sites or subunits per partner or assembly.

Among the data in PMC7527733 are stoichiometry N values, retold here.

Assay [1] deals with Elizabethkingia anophelis strain AG1 CDC-like protein (CDCL) (Elizabethkingia anophelis strain AG1). Description: SDS-agarose gel electrophoresis (SDS-AGE).
Assay [2] deals with Elizabethkingia anophelis strain AG1 short CDC-like protein (CDCL^S) (Elizabethkingia anophelis strain AG1). Description: […]) in 20 mM HEPES (pH 7), 150 mM NaCl, […] (55:45) […].

Take “Elizabethkingia anophelis strain AG1 CDC-like protein (CDCL) (natural protein)”: in assay [1], the stoichiometry N was 2.

On to “Elizabethkingia anophelis strain AG1 short CDC-like protein (CDCL^S) (natural protein)”, for which the stoichiometry N in assay [2] was found to be 28 monomers.
